Measurements as given in PMC3102601.

What was measured:
Assay in all cases: purified protein
purified protein [1] = substrate: O=CCP(=O)(O)O; details: Zn2+; 25.0 °C
purified protein [2] = substrate: O=[N+]([O-])c1ccc(OP(=O)(O)O)cc1; details: Zn2+; 25.0 °C
purified protein [3] = substrate: Nc1ncnc2c1ncn2[C@@H]1O[C@H](COP(=O)(O)OP(=O)(O)OP(=O)(O)O)[C@@H](O)[C@H]1O; format: biochemical, Pseudomonas fluorescens; details: Zn2+ active site; phosphoryl transfer to Thr64; 25.0 °C

B1: phosphonoacetate hydrolase (PAc hydrolase) (Pseudomonas fluorescens) (protein)
chain: TQLISVNSRSYRLSSAPTIVICVDGCEQEYINQAIQAGQAPFLAELTGFGTVLTGDCVVPSFTNPNNLSIVTGAPPSVHGICGNFFFDQETQEEVLMNDAKYLRAPTILAEMAKAGQLVAVVTAKDKLRNLLGHQLKGICFSAEKADQVNLEEHGVENILARVGMPVPSVYSADLSEFVFAAGLSLLTNERPDFMYLSTTDYVQHKHAPGTPEANAFYAMMDSYFKRYHEQGAIVAITADHGMNAKTDAIGRPNILFLQDLLDAQYGAQRTRVLLPITDPYVVHHGALGSYATVYLRDAVPQRDAIDFLAGIAGVEAVLTRSQACQRFELPEDRIGDLVVLGERLTVLGSAADKHDLSGLTVPLRSHGGVSEQKVPLIFNRKLVGLDSPGRLRNFDIIDLALNHLA
Purified protein [1]
  Km: 0.33 ± 0.01 mM
  kcat: 0.027 ± 0.01 s⁻¹
  kcat/Km: 80 M⁻¹ s⁻¹
Purified protein [2]
  Km: 14 ± 0.2 mM
  kcat: 0.22 s⁻¹
  kcat/Km: 20 M⁻¹ s⁻¹
Purified protein [3]
  Km: 1 mM
  kcat: 0.0002 s⁻¹
  kcat/Km: 0.2 M⁻¹ s⁻¹
